Tests used:
Assay in all cases: flow cytometry on 293T cells overexpressing EphA1-A8
[1] = target: T1, EphA5 overexpressed on 293T cells (UniProt P54756 25-1037, limits assumed)
T1 construct: whole, on cells
Description: (§1) To detect the binding specificity of scFv, 293T cells were transformed with EphA1-A8 plasmids individually for overexpression of different EphA molecules. The cell line was freshly prepared and washed with FACS buffer (2% FBS in PBS). The cells were seeded at 1×10⁵ cells/well into a 96-well Ubottom plate and incubated with scFv for 1 h at 4° C. After the plate was washed with FACS buffer, the anti-hemagglutinin (HA) antibody was added for scFv binding detection (scFv was fused with a HA tag) and subsequently developed using an FITC-conjugated secondary antibody. Finally, the cell binding signal was analyzed using a FACS can flow cytometer.

[2] = target: T2, EphA1 overexpressed on 293T cells (UniProt P21709 26-976, limits assumed)
T2 construct: whole, on cells
T2 sequence (looked up): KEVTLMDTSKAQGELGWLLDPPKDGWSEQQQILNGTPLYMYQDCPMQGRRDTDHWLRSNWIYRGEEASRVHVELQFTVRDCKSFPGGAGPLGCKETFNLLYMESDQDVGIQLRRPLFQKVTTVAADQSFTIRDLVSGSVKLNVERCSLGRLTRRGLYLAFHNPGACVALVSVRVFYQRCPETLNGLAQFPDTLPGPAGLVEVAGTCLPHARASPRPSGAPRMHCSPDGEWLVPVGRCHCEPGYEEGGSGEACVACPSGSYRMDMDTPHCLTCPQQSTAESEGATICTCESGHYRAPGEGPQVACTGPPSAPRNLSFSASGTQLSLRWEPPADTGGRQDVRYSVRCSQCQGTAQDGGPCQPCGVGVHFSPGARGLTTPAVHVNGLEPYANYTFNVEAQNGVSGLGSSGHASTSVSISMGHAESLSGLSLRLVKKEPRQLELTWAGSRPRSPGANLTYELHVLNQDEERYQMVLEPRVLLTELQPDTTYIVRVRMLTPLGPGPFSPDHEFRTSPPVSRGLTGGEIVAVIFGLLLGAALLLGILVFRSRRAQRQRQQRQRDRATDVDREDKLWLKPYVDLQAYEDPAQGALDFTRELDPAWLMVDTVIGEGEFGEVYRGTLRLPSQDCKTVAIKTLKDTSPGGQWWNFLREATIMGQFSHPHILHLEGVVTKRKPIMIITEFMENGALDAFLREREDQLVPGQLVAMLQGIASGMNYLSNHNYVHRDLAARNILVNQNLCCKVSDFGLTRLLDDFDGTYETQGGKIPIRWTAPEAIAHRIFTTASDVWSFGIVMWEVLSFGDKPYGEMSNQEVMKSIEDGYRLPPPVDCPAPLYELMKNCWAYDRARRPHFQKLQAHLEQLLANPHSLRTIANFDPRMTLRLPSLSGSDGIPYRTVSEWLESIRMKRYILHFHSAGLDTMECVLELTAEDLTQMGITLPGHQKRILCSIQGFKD
Description: as §1

[3] = target: T3, EphA6 overexpressed on 293T cells (UniProt Q9UF33 23-1036, limits assumed)
T3 construct: whole, on cells
T3 sequence (looked up): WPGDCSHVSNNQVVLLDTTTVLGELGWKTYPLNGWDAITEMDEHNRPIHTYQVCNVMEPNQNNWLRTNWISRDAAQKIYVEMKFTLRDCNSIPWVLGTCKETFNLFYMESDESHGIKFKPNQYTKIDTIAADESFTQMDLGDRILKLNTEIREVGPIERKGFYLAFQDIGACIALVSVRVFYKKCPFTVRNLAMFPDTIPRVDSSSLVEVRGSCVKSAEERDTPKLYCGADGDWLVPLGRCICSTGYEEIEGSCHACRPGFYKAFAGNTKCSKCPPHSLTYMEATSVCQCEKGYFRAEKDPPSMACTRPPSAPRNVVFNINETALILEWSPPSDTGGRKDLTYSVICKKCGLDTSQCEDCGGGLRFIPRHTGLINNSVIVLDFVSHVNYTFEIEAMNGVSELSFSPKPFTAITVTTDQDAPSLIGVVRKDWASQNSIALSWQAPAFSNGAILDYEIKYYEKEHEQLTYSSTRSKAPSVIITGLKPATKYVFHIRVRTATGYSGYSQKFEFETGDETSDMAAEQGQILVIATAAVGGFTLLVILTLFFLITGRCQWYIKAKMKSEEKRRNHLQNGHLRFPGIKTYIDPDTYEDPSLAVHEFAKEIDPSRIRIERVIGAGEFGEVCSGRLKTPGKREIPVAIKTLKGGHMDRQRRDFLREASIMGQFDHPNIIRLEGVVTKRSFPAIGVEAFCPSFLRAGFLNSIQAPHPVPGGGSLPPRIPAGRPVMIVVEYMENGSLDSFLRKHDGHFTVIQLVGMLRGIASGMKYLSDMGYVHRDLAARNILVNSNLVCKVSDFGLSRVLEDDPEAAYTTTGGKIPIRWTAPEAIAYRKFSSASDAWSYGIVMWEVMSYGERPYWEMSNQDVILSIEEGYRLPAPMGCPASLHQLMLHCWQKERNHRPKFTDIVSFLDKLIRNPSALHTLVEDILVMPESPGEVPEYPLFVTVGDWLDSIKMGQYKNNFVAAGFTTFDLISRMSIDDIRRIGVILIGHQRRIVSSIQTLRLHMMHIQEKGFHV
Description: as §1

[4] = target: T4, EphA4 overexpressed on 293T cells (UniProt P54764 20-986, limits assumed)
T4 construct: whole, on cells
Description: as §1

T4 sequence (P54764 20-986 limits assumed): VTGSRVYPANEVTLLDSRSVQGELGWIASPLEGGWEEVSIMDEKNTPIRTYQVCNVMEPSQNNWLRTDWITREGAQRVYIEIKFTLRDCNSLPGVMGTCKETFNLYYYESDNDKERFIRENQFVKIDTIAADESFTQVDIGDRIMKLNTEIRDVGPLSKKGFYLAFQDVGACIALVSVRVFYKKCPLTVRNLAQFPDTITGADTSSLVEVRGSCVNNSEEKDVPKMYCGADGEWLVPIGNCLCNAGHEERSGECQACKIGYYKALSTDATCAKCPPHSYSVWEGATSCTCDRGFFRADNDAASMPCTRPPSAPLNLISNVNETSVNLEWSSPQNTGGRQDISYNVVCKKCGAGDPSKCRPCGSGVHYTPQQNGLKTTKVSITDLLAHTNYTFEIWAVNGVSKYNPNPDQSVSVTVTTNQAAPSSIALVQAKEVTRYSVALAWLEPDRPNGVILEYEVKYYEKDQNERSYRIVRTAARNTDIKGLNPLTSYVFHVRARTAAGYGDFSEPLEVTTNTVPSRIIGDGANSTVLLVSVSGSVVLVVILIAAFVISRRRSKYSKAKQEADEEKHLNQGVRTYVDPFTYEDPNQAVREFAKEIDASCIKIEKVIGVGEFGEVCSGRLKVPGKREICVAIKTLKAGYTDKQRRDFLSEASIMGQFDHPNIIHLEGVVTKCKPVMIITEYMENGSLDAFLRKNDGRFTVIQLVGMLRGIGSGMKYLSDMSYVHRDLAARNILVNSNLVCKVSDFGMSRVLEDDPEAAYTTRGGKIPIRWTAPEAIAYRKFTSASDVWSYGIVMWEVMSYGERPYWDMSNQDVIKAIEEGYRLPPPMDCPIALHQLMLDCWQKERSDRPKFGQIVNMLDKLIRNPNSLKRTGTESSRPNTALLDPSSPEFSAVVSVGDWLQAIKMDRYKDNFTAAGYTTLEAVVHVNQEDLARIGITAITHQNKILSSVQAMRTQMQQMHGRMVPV
T1 sequence (P54756 25-1037 limits assumed): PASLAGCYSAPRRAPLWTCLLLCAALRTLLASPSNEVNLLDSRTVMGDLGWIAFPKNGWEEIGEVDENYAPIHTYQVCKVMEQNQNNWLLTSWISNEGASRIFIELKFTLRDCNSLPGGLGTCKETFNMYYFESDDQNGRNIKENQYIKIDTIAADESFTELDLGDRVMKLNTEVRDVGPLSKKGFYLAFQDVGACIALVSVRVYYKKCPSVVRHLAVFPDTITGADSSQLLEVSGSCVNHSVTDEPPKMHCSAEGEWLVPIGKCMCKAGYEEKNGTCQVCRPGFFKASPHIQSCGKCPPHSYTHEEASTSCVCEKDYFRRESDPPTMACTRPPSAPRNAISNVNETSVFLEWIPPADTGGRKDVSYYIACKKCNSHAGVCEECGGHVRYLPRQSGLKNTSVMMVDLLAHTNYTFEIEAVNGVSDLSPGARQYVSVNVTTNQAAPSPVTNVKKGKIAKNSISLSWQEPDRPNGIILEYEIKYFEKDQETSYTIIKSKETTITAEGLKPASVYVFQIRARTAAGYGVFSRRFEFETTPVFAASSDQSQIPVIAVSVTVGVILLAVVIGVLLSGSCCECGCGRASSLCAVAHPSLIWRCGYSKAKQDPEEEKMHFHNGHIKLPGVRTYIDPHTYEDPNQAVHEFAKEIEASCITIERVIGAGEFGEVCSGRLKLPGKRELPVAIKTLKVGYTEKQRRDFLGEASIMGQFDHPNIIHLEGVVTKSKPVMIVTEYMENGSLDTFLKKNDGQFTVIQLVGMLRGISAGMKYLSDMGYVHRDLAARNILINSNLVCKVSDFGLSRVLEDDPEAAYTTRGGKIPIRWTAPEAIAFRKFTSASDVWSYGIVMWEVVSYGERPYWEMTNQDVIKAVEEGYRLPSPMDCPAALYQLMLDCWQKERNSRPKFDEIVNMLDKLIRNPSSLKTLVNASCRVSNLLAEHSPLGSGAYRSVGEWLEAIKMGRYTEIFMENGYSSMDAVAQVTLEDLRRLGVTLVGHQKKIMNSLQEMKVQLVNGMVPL

binding result [1]: no binding
binding result [2]: no binding
binding result [3]: no binding
binding result [4]: no binding
B1: Humanized scFv hSD5 (scFv)
scFv: LTQPPSVSVSPGQTVRITCSGSSGSYGWYQQKSPGQAPVTLIYDNDKRPSGIPERFSGSSSGSTSTLTISGVQAEDEADYYCGSADSSTYVGMFGGGTKLTVLGQSSRSSQVQLVESGGGLVQPGGSLRLSCAASGFTFSDYGMGWVRQAPGKGLEWVAGISAAGSFTPYGAAVKGRFTISRDNSKNTVYLQMNSLRAEDTAVYYCARIPSGYRAGEIYTWGQGTLVTVSS
notes: also called hSD5 scFv; Humanized scFv hSDS

From US20250340655A1, “EPHA2-TARGETING ANTIBODIES AND THEIR APPLICATIONS IN CANCER TREATMENT” (TAIPEI MEDICAL UNIVERSITY, priority 2022, published 2025)
